*1 amine or outer side, *2 acyl side, *3 side chain or, on linkers, in order; H or OH if unused. Where no end group is shown, it is not given here. [ ]: non-standard residue; d: D form. Phe(4-NHSO2CH3) = 4-(methylsulfonamido)phenylalanine, CS(=O)(=O)Nc1ccc(C[C@H](N[*:1])C(=O)[*:2])cc1; Phe(4-guanidino) = N=C(N)Nc1ccc(C[C@H](N)C(=O)O)cc1; pY = N[C@@H](Cc1ccc(OP(=O)(O)O)cc1)C(=O)O; Phe(4-Cl) = N[C@@H](Cc1ccc(Cl)cc1)C(=O)O; Phe(4-F) = N[C@@H](Cc1ccc(F)cc1)C(=O)O; Phe(4-I) = N[C@@H](Cc1ccc(I)cc1)C(=O)O; Phe(NH2) = aminophenylalanine; Phe(NO2) = nitrophenylalanine; Phe(CN) = cyanophenylalanine; Phe(N3) = azidophenylalanine; βAla = NCCC(=O)O
B1: 3-phenylpyrazolopyrimidine-peptide conjugate 43 (3-phenylpyrazolopyrimidine-YIYGSFK) (peptide)
peptide: YIYGSFK
modifications: not fully specified (N-terminus); also: short linker between the label and the N-terminus not given here
B2: ATP-βAla-pTyr-Glu-Glu-Ile-OH (1) (peptide)
peptide: {ATP}-[βAla][pY]EEI-OH
notes: also called compound 1; ATP-phosphopeptide conjugate 1

Target: Src tyrosine kinase
Assay: cell-based or functional assay

Row | Binder | fold reduction of inhibitory potency compared to 42 [fold] | IC50, inhibition of polyE4Y phosphorylation (radioactive kinase assay) [µM] | fold reduction of inhibitory potency compared to 43 [fold] | fold higher inhibitory potency versus 40 [fold] | fold reduction of inhibitory activity compared to 42 [fold] | IC50, inhibition of polyE4Y phosphorylation by active Src [µM]
1 | {3‑phenylpyrazolopyrimidine}-GCIYKYY [3-phenylpyrazolopyrimidine-peptide conjugate 54] | 21 | – | – | – | – | –
2 | Ac-YIYGSFK [Ac-YIYGSFK (41)] | – | 570 | – | – | – | –
3 | YIYGSFK(3‑phenylpyrazolopyrimidine) [3-phenylpyrazolopyrimidine-peptide conjugate 53] | – | – | 11 | – | – | –
4 | Ac-CIYK[Phe(NO2)]Y [Ac-CIYKF(NO2)Y (62)] | – | – | – | ~750 | – | –
5 | Cys-Ile-Tyr (not fully specified (N-terminus); also: short linker to N-terminus) [3-phenylpyrazolopyrimidine-peptide conjugate 45] | – | – | – | – | ~145 | –
6 | B1 | – | – | – | – | – | 2.7

Target: Src tyrosine kinase
Assay: cell-based or functional assay
Remark: another data set of the same source

Row | Binder | IC50, inhibitory potency (Src kinase assay, polyE4Y phosphorylation) [µM]
7 | Ac-CIYK[Phe(CN)]Y [Ac-CIYKF(CN)Y (78)] | 6
8 | Ac-YI[Phe(NO2)]GSFK [Ac-YIF(NO2)GSFK (87)] | > 100
9 | Ac-CIYKY[Phe(NH2)] [Ac-CIYKYF(NH2) (68)] | > 700
10 | Ac-CIYK[Phe(NH2)]Y [Ac-CIYKF(NH2)Y (63)] | 93
11 | Ac-CIYK[Phe(4-Cl)]Y [Ac-CIYKF(4-C1)Y (75)] | 7.3
12 | YIYGSFK [YIYGSFK (85)] | > 100
13 | Ac-CI[Phe(NO2)]KYY [Ac-CIF(NO2)KYY (64)] | 1.5
14 | Ac-CIYK[Phe(NO2)]Y [Ac-CIYKF(NO2)Y (62)] | 0.53
15 | Ac-CIYK[Phe(4-guanidino)]Y [Ac-CIYKF(4-Guanidine)Y (73)] | > 700
16 | Ac-CIYK[Phe(4-I)]Y [Ac-CIYKF(4-I)Y (76)] | 0.78
17 | CIYK[Phe(NO2)]Y [CIYKF(NO2)Y (77)] | 3
18 | YI[Phe(NO2)]GSFK [YIF(NO2)GSFK (86)] | > 100
19 | Ac-CIYK[Phe(N3)]Y [Ac-CIYKF(N3)Y (79)] | 2
20 | Ac-CIYKY[Phe(NO2)] [Ac-CIYKYF(NO2) (66)] | 10.8
21 | Ac-CIYK[Phe(4-F)]Y [Ac-CIYKF(4-F)Y (74)] | 26
22 | Ac-CIYK[Phe(4-NHSO2CH3)]Y [Ac-CIYKF(4-NHSO2CH3)Y (80)] | > 100
23 | Ac-CIYKFY [Ac-CIYKFY (61)] | > 700
24 | Ac-CI[Phe(NH2)]KYY [Ac-CIF(NH2)KYY (67)] | 760

Target: Src tyrosine kinase
Assay: cell-based or functional assay
Remark: another data set of the same source

Row | Binder | IC50, inhibitory potency (Src kinase assay, polyE4Y phosphorylation) [µM]
25 | Ac-CYK[pY]Y [Ac-CYKpYY (84)] | > 100
26 | IYKYY [IYKYY (81)] | 211
27 | Ac-CYK[Phe(4-Cl)]Y [Ac-CYKF(4-C1)Y (83)] | 39
28 | Ac-CI[Phe(NO2)]K[Phe(NO2)]Y [Ac-CIF(NO2)KF(NO2)Y (69)] | 1.4
29 | Ac-CIYKY [Ac-CIYKY (82)] | > 100
30 | Ac-CIYK[Phe(NO2)]YF [Ac-CIYKF(NO2)YF (65)] | 1
31 | Ac-CIYK[Phe(NO2)][Phe(NO2)] [Ac-CIYKF(NO2)F(NO2) (70)] | 5.6
32 | Ac-CI[Phe(NO2)]KY[Phe(NO2)] [Ac-CIF(NO2)KYF(NO2) (71)] | 3.4

Target: Src tyrosine kinase
Assay: steady-state kinetics, radioactive kinase assay; ATP-binding site of Src

Row | Binder | Ki [µM]
33 | B2 | 1.7

Source: patent publication US20110034670A1 (BOARD OF GOVERNORS FOR HIGHER EDUCATION STATE OF RHODE …, published 2011)
